Data on 27 sequences can be found in the supplement of paper PMC9170038.

This data set has as its system MS2 coat protein. The experiment in a line: apparent KD of MS2 coat protein; designed switch direction (-1 OFF switch, 1 ON switch): 1; higher = weaker reporter binding. The procedure, abridged:
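SNAP-549-labelled MS2 coat protein was titrated, doubling from 0.7 or 1.5 nM to 3 µM, over designed RNA switches transcribed on Illumina chips by stalled E. coli RNA polymerase. Runs were done without input, with 200 uM small-molecule ligand, or with an oligonucleotide input. Apparent KD is the per-design median over clusters of curve-fitted normalised fluorescence.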

Where [1] appears, read: input ligand: microRNA oligo, concentration not stated.
Where [2] appears, read: Eterna round: R95, input ligand: FMN 200 uM.
Setting [3] is: Eterna round: R95, input ligand: microRNA oligo, concentration not stated.
Setting [4] is: Eterna round: R95, input ligand: none.

Regarding “UACUUCAUGUAAGGAUAUGCAGCCGUUUCGGCUGCAGAAGGUACUAUAAUACAUGAGGAUCACCCAUGUCUCUCGCAUUGCGAG [JL SSNG1 1.50] (Eterna round: R96, puzzle: Same State NG 1)”, the “apparent KD of MS2 coat protein” value runs as follows: (input ligand: FMN 200 uM) 0.0536 µM; under setting [1], 0.0862 µM; (input ligand: none) 0.158 µM.
Consider “UAGAAACAUGAGGAUCACCCAUGUGUCAAAGACAUAGGAUAUCAUAACUGGCGCCAGUUAUGAGAAGGGUGGUAAA [Belezaqu] (puzzle: Same State 1)”, for which the “apparent KD of MS2 coat protein” value runs as follows: under setting [2], 0.0338 µM; under setting [3], 0.0526 µM; under setting [4], 0.17 µM.
For “UAGAGAGGAAGCGAGGAUAUCGUGUGAGGUACAUGAGGAUCACCCAUGUUUGAUGUUGAGAGAGGCGAGAAGGCGCAGGAGAUAA [JR_SS2_Sub085] (puzzle: Same State 2)” the same measures were 0.0319 µM, 0.0324 µM and 0.0341 µM.
The matching figures for “UAGAGAGGAAGCGAGGAUAUCGUGUUAGGUACAUGAGGAUCACCCAUGUUUUAAGUAGAGAUAGGCGAGAAGGCGCAGGAGAAGA [JR_SS2_Sub089] (puzzle: Same State 2)”: 0.038 µM, 0.0201 µM and 0.028 µM.
With “UAGUGCGUUAGAGGAUAUUCUAAAAAAAAAAAAAAGACAUGAGGAUCACCCAUGUAUGUACAUGGGAAGAAGGCUGAUGUGCUA [Omei SS(NG)2 B] (Eterna round: R96, puzzle: Same State NG 2)”, the “apparent KD of MS2 coat protein” value by setting is: (input ligand: FMN 200 uM) 0.0759 µM; under setting [1], 0.352 µM; (input ligand: none) 0.551 µM.
For “UAUAAACAUGAGGAUCACCCAUGUAAUAAUAUGGGAGGAUAUCAGAAUGUAUGUAUGUAAUGAGAAGGCCUAAUAU [Mat - Same State 1 - Mod of Eli - D70] (puzzle: Same State 1)”, the “apparent KD of MS2 coat protein” value under setting [2] came to 0.0544 µM, the “apparent KD of MS2 coat protein” value under setting [3] came out at 0.268 µM and the “apparent KD of MS2 coat protein” value under setting [4] was found to be 1.27 µM.
Turning to “UAUAAACAUGAGGAUCACCCAUGUAAUAAUAUGGGAGGAUAUCAGAAUGUAUUUAUUUAAUGAGAAGGCCUAAUAU [Mat - Same State 1 - Mod of Eli - D68] (puzzle: Same State 1)”, the “apparent KD of MS2 coat protein” value by setting is: under setting [2], 0.0464 µM; under setting [3], 0.532 µM; under setting [4], 0.645 µM.
Regarding “UAUAUUAUGGUAGGAUAUGUAGGAUAUGGCGAGAGCUAAGCUUGGAAGUCACUUCAGCCAGAAGGACAGAAGGACCAUAAUAUU [pwkr ssNG2 2FMN + F9.9] (Eterna round: R96, puzzle: Same State NG 2)”, the “apparent KD of MS2 coat protein” value runs as follows: (input ligand: FMN 200 uM) 0.0166 µM; under setting [1], 0.127 µM; (input ligand: none) 0.216 µM.
For “UAUCGUUUGAUAGGAUAUCGCUAUACAUGAGGAUCACCCAUGUUUACCACGCUGGUUUUUCAUACCGAGAAGGAUUCUGAUGAG [salish99_SSNG02_r04_005] (Eterna round: R96, puzzle: Same State NG 2)” the same measures were 0.0363 µM, 0.0332 µM and 0.0422 µM.
The matching figures for “UAUGAAUAGCAAGGAUAUUGAUAACAUGAGGAUCACCCAUGUAAUUGAUUGAGAAAGAUUAGUUACAAGAAGGUGCAAUUGAUU [JR_SSNG2_Sub034] (Eterna round: R96, puzzle: Same State NG 2)”: 0.282 µM, 0.441 µM and 0.311 µM.
The matching figures for “UAUGACUUACAAGGAUAUUAAUGACAUGAGGAUCACCCAUGUGGCUGUGUAUGUUAGAUAAGCAUUAAGAAGGUGUGCGAGUCU [JR_SSNG2_Sub097] (Eterna round: R96, puzzle: Same State NG 2)”: 0.0307 µM, 0.0232 µM and 0.0254 µM.
For the sequence “UAUUAGAUCCGAGGAUAUCCUUAUUACAAACAUGAGGAUCACCCAUGUAAAGGGAAUGAGUUGUAGGAGAAGGCGGAUUUAGUU [JR_SSNG2_Sub057] (Eterna round: R96, puzzle: Same State NG 2)”, the “apparent KD of MS2 coat protein” value is, setting by setting: (input ligand: FMN 200 uM) 0.0335 µM; under setting [1], 0.033 µM; (input ligand: none) 0.051 µM.
“UAUUUAAUCAUAGGAUAUAGUGUGAAAUUUGGACUAGAAGGAUGUAACAUGAGGAUCACCCAUGUGGUAAGUGGGAUACAUUCC [JR_SSNG1_Sub098] (Eterna round: R96, puzzle: Same State NG 1)”: the “apparent KD of MS2 coat protein” value runs as follows: (input ligand: FMN 200 uM) 0.11 µM; under setting [1], 0.075 µM; (input ligand: none) 0.117 µM.
As to “UCAAGCGUUUGGCUCGUCUUAUGUUUGGUACAUGAGGAUCACCCAUGUUAGGGACGAUCCAGUUAGAUGGAAUUUUG [JR_SHM208A_Sub036] (puzzle: Sensor for hsa-mir-208a)”, the “apparent KD of MS2 coat protein” value under setting [2] is 0.0365 µM, the “apparent KD of MS2 coat protein” value under setting [3] was 0.637 µM and the “apparent KD of MS2 coat protein” value under setting [4] was 0.0456 µM.
With “UCGGGCGUACUUGCUGACAUGAGGAUCACCCAUGUAAAUGGGAAGGAUAUGGUACCGUUUCGGUACCAGAAGGUCCUGGGUGCU [salish99_SSNG3_r04_309] (Eterna round: R96, puzzle: Same State NG 3)”, the “apparent KD of MS2 coat protein” value runs as follows: (input ligand: FMN 200 uM) 2.27 µM; under setting [1], 0.674 µM; (input ligand: none) 3.84 µM.
The matching figures for “UCGGGCGUACUUGCUGACAUGAGGAUCACCCAUGUAAAUGGGAAGGAUAUGGUUCCGUUUCGGUUCCAGAAGGUCCUGGGUGCU [salish99_SSNG3_r04_311] (Eterna round: R96, puzzle: Same State NG 3)”: 0.886 µM, 1.14 µM and 1.18 µM.
For “UCGGGCGUACUUGCUGACAUGAGGAUCACCCAUGUCCUUGGGAAGGAUAUGGUUCCGUUUCGGUUCCAGAAGGUCCUGGCUGCU [salish99_SSNG3_r04_317] (Eterna round: R96, puzzle: Same State NG 3)” the same measures were 0.0301 µM, 0.0426 µM and 0.0782 µM.
The matching figures for “UCUGCUGCCCAAGGAUAUCAGCGUGGUAUCCACAUGAGGAUCACCCAUGUAGGUCAGCACUACCCUGAGAAGGUGGGAAAAUAA [Eternabot solution 2] (Eterna round: R96, puzzle: Same State NG 2)”: 0.0144 µM, 0.0106 µM and 0.0151 µM.
In the case of “UCUUGGUUUUUGCUCGUUUUUUGUGUUGAACAUGAGGAUCACCCAUGUAUUGUACGGUCCAAUUUAAUAAUGGUCCG [JMF 23] (puzzle: Sensor for hsa-mir-208a)”, the “apparent KD of MS2 coat protein” value is, setting by setting: under setting [2], 0.0263 µM; under setting [3], 0.0143 µM; under setting [4], 0.0269 µM.
The matching figures for “UCUUGGUUUUUGCUCGUUUUUUGUGUUGAACAUGAGGAUCACCCAUGUAUUGUACGGUCCAAUUUGGUGGUAGUCCG [JMF 68] (puzzle: Sensor for hsa-mir-208a)”: 0.0404 µM, 0.0296 µM and 0.0469 µM.
The matching figures for “UCUUGGUUUUUGCUCGUUUUUUGUGUUGAACAUGAGGAUCACCCAUGUAUUGUACGGUCCAGUUUAAUAGUGGUCCG [JMF 31] (puzzle: Sensor for hsa-mir-208a)”: 0.0258 µM, 0.0134 µM and 0.0238 µM.
For “UGAAAACAUGAGGAUCACCCAUGUAUUAUUAUGGGAGGAUAUGGGAAUUAAUUAAUUAAACCAGAAGGCCUAAAGU [Mat - Same State 1 - D89] (puzzle: Same State 1)” the same measures were 0.0247 µM, 0.0572 µM and 0.0526 µM.
Turning to “UGAAUAAUGAUAGGAUAUACAUGAGGAAUCCUCGUAGAAGGAUCAUGACAUGAGGAUCACCCAUGUAGCGCUCGAAAGAGCGCA [Mat - Same State NG 1 - JL mod - D52] (Eterna round: R96, puzzle: Same State NG 1)”, the “apparent KD of MS2 coat protein” value by setting is: (input ligand: FMN 200 uM) 0.186 µM; under setting [1], 0.0549 µM; (input ligand: none) 0.232 µM.
The matching figures for “UGAAUAGUGAUAGGAUAUACAUGAGGAAUCCUCGUAGAAGGAUCACGACAUGAGGAUCACCCAUGUAGCCGUCCGUAGACGGCA [Mat - Same State NG 1 - JL mod - D59] (Eterna round: R96, puzzle: Same State NG 1)”: 0.353 µM, 0.0664 µM and 0.231 µM.
The matching figures for “UGAAUAGUUACAGGAUAUCAUGCGAAAAUUGCGUGAGAAGGGUGGGUGUUGUGCGCUAAGUGCCACAUGAGGAUCACCCAUGUU [SameState NG1 #38] (Eterna round: R96, puzzle: Same State NG 1)”: 0.0445 µM, 0.0071 µM and 0.0256 µM.
In the case of “UGAAUAGUUACAGGAUAUGAGCCGUAAAUUGGGUCAGAAGGGUGGGUGUUUUGCGCUGUGUGCUACAUGAGGAUCACCCAUGUU [SameState NG1 #33] (Eterna round: R96, puzzle: Same State NG 1)”, the “apparent KD of MS2 coat protein” value came to 0.52 µM (input ligand: FMN 200 uM), 0.172 µM under setting [1] and 0.24 µM (input ligand: none).
For “UGAGGUGUAGCAGGAUAUGCCGUCAGUCACCCGGCAGAAGGGCUGAAAGCAUGCUCGCACAUGAGGAUCACCCAUGUCACAGUG [Eternabot solution 17] (Eterna round: R96, puzzle: Same State NG 1)” the same measures were 0.0489 µM, 0.0377 µM and 0.044 µM.
